This series deals with CC(=O)O[C@H]1C(=O)[C@@]2(C)[C@H]([C@H](OC(=O)c3ccccc3)[C@]3(O)C[C@H](OC(=O)[C@H](O)[C@@H](NC(=O)c4ccccc4)c4ccccc4)C(C)=C1C3(C)C)[C@]1(OC(C)=O)CO[C@@H]1C[C@@H]2O. Put plainly: TP_TRANSPORTER: uptake in MDR1-expressing MCF7 cells. Format: functional, cell-based.

As to “ATP-dependent translocase ABCB1 (Homo sapiens)”, the Km is 0.014 µM.

What is called Km is the substrate concentration at which the rate is half of its maximum.

The values above are taken from ChEMBL document CHEMBL2074331, “Kinetics of P-glycoprotein-mediated efflux of paclitaxel” (J Pharmacol Exp Ther, 2001).
